B1: ABT1-95-65 (other)
VL: DIQMTQSPSSLSASVGDRVTITCRASQPIVRNLRWYQQKPGKAPKLLIYGSSYLEPGVPSRFSGSGSGTDFTLTISSLQPEDFATYHCQQGYRWPVTFGQGTKVEIKR
notes: VK dAb
B2: ABT1-95-76 (other)
VL: DIQMTQSPSSLSASVGDRVTITCRASQPIVRNLRWYQQKPGKAPKLLIYSGSYLEPGVPSRFSGSGSGTDFTLTISSLQPEDFATYHCQQGYRWPVTFGQGTKVEIKR
notes: VK dAb
B3: ABT1-95-71 (other)
VL: DIQMTQSPSSLSASVGDRVTITCRASQPIVRNLRWYQQKPGKAPKLLIYNSSYLEPGVPSRFSGSGSGTDFTLTISSLQPEDFATYHCQQGYRWPVTFGQGTKVEIKR
notes: VK dAb
B4: ABT1-95-89 (other)
VL: DIQMTQSPSSLSASVGDRVTITCRASQPIVRNLRWYQQKPGKAPKLLIYSSSLLEPGVPSRFSGSGSGTDFTLTISSLQPEDFATYHCQQGYRWPVTFGQGTKVEIKR
notes: VK dAb
B5: ABT1-95-96 (other)
VL: DIQMTQSPSSLSASVGDRVTIACRASQPIVRNLRWYQQKPGKAPKLLIYSSSRLEPGVPSRFSGSGSGTDFTLTISSLQPEDFATYHCQQGYRWPVTFGQGTKVEIKR
notes: VK dAb
B6: ABT1-95-69 (other)
VL: DIQMTQSPSSLSASVGDRVTITCRASQPIVRNLRWYQQKPGKAPKLLIYKSSYLEPGVPSRFSGSGSGTDFTLTISSLQPEDFATYHCQQGYRWPVTFGQGTKVEIKR
notes: VK dAb
B7: ABT1-95-95 (other)
VL: DIQMIQSPSSLSASVGDRVTITCRASQPIVRNLRWYQQKPGKAPKLLIYSSSQLEPGVPSRFSGSGSGTDFTLTISSLQPEDFATYHCQQGYRWPVTFGQGTKVEIKR
notes: VK dAb
B8: ABT1-95-98 (other)
VL: DIQMTQSPSSLSASVGDRVTITCRASQPIVRNLRWYQQKPGKAPKLLIYSSSALEPGVPSRFSGSGSGTDFTLTISSLQPEDFATYHCQQGYRWPVTFGQGTKVEIKR
notes: VK dAb
B9: ABT1-95-83 (other)
VL: DIQMTQSPSSLSASVGDRVTITCRASQPIVRNLRWYQQKPGKAPKLLIYSSSYLEPGVPPRFSGSGSGTDFTLTISSLQPEDFATYHCQQGYRWPVTFGQGTKVEIKR
notes: VK dAb
B10: ABT1-95-106 (other)
VL: DIQMTQSPSSLSASVGDRVTITCRASQPIVRNLRWYQQKPGKAPKLLIYSSSYLERGVPSRFSGSGSGTDFTLTISSLQPEDFATYHCQQGYRWPVAFGQGTKVEIKR
notes: VK dAb
B11: ABT1-95-101 (other)
VL: DIQMTQSPSSLSASVGDRVTITCRASQPIVRNLRWYQQKPGKAPKLLVYSSSLLEPGVPSRFSGSGSGTDFTLTISSLQPEDFATYHCQQGYRWPVTFGQGTKVEIKR
notes: VK dAb
B12: ABT1-95-72 (other)
VL: DIQMTQSPSSLSASVGDRVTITCRASQPIVRNLRWYQQKPGKAPKLLIYHSSYLEPGVPSRFSGSGSGTDFTLTISSLQPEDFATYHCQQGYRWPVTFGQGTKVEIKR
notes: VK dAb
B13: ABT1-95-74 (other)
VL: DIQMTQSPSSLSASVGDRVTITCRASQPIVRNLRWYQQRPGKAPKLLIYSGSYLEPGVPSRFSGSGSGTDFTLTISSLQPEDFATYHCQQGYRWPVTFGQGTKVEIKR
notes: VK dAb
B14: ABT1-95-87 (other)
VL: DIQMTQSPSSLSASVGDRVTITCRASQPIVRNLRWYQQKPGKAPKLLIYSSSRLEPGVPSRFSGSGSGTDFTLTISSLQPEDFATYHCQQGYRWPVTFGQGTKVEIKR
notes: VK dAb
B15: ABT1-95-91 (other)
VL: DIQMTQSPSSLSASVGDRVTITCRASQPIVRNLRWYQQKPGKAPKLLIYSSSNLEPGVPSRFSGSGSGTDFTLTISSLQPEDFATYHCQQGYRWPVTFGQGTKVEIKR
notes: VK dAb
B16: ABT1-95-77 (other)
VL: DIQMTQSPSSLSASVGDRVTITCRASQPIVRNLRWYQQKPGKAPELLIYSGSYLEPGVPSRFSGSGSGTDFTLTISSLQPEDFATYHCQQGYRWPVTFGQGTKVEIKR
notes: VK dAb
B17: ABT1-95-78 (other)
VL: DIQMTQSPSSLSASVGDRVTITCRASQPIVRNLRWYQQKPGKAPKLLIYSESYLEPGVPSRFSGSGSGTDFTLTISSLQPEDFATYHCQQGYRWPVTFGQGTKVEIKR
notes: VK dAb
B18: ABT1-95-110 (other)
VL: DIQMTQSPSSLSASVGDRVTITCRASQPIVRNLRWYQQKPGKAPKLLIYSSSYLEAGVPSRFSGSGSGTDFTLTISSLQPEDFATYHCQQGYRWPVTFGQGTKVEIKR
notes: VK dAb
B19: ABT1-95-108 (other)
VL: DIQMTQSPSSLSASVGDRVTITCRASQPIVRNLRWYQQKPGKAPKLLIYSSSYLEEGVPSRFSGSGSGTDFTLTISSLQPEDFATYHCQQGYRWPVTFGQGTKVEIKR
notes: VK dAb
B20: ABT1-95-73 (other)
VL: DIQMTQSPSSLSASVGDRVTITCRASQPIVRNLRWYQQKPGKAPKLLIYQSSYLEPGVPSRFSGSGSGTDFTLTISSLQPEDFATYHCQQGYRWPVTFGQGTKVEIKR
notes: VK dAb
B21: ABT1-95-70 (other)
VL: DIQMTQSPSSLSASVGDRVTITCRASQPIVRNLRWYQQKPGKAPKLLVYGSSYLEPGVPSRFSGSGSGTDFTLTISSLQPEDFATYHCQQGYRWPVTFGQGTKVEIKR
notes: VK dAb
B22: ABT1-95-93 (other)
VL: DIQMTQSPSSLSASVGDRVTITCRASQPIVRNLRWYQQKPGKAPKLLIYSSSILEPGVPSRFSGGGSGTDFTLTISSLQPEDFATYHCQQGYRWPVTFGQGTKVEIKR
notes: VK dAb
B23: ABT1-95-75 (other)
VL: DIQMTQSPSSLSASVGDRVTITCRASQPIVRNLRWYQQKPGKAPKLLIYSASYLEPGVPSRFSGSGSGTDFTLTISSLQPEDFATYHCQQGYRWPVTFGQGTKVEIKR
notes: VK dAb
B24: ABT1-95-90 (other)
VL: DIQMTQSPSSLSASVGDRVTITCRASQPIVRNLRWYQQKPGKAPKLLIYSSSQLEPGVPSRFSGSGSGTDFTLTISSLQPEDFATYHCQQGYRWPVTFGQGTKVEIKR
notes: VK dAb
B25: ABT1-95-94 (other)
VL: DIQMTQSPSSLSASVGDRVTITCRASQPIVRNLRWYQQKPGKAPKLLIYSSSSLEPGVPSRFSGSGSGTDFTLTISSLQPEDFATYHCQQGYRWPVTFGQGTKVEIKR
notes: VK dAb

This assay addresses T1, human IL-1α (human, UniProt P01583 113-271).
T1 construct: also called IL-1alpha; hIL-1α
T1 sequence (looked up): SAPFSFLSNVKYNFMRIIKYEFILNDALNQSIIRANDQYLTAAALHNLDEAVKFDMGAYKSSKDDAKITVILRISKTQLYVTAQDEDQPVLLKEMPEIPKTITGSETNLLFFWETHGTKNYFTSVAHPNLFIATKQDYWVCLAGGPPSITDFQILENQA
The assay is described as follows: Table 62 IC50; RBA presumed.
On to B1, for which the IC50 (usually the concentration needed to halve the response being measured) was determined as 0.2 nM.
The molecule B2 showed an IC50 of 0.3 nM.
For B3, the IC50 was determined as 1 nM.
In the case of B4, the midpoint of inhibition, the IC50, lay at 0.3 nM.
As to B5, the IC50 came to 0.1 nM.
Molecule B6 came in with a concentration for half-maximal inhibition (IC50) of 1 nM.
B7 displayed an IC50 of 0.3 nM.
For B8, the IC50 was 0.8 nM.
Molecule B9 registered an IC50 of 0.2 nM.
Molecule B10 gave a half-inhibitory concentration (IC50) of 0.1 nM.
To B11 belongs 0.5 nM; to B12, 1 nM; to B13, 0.3 nM.
In the case of B14, the IC50 amounted to 0.2 nM.
B15 came in with an IC50 of 0.3 nM.
Take B16: inhibition was half-maximal at 0.3 nM (IC50).
Molecule B17 gave an IC50 of 0.3 nM.
Consider B18, for which the IC50 came out at 0.1 nM.
To B19 belongs 0.5 nM; to B20, 3 nM.
Take B21: the 50% inhibitory concentration (IC50) was 0.1 nM.
In turn, B22 returned an IC50 of 0.1 nM.
B23 showed an IC50 of 0.3 nM.
B24 displayed a 50% inhibitory concentration (IC50) of 0.5 nM.
Consider B25, for which the 50% inhibitory concentration (IC50) is 0.1 nM.

Values taken from patent US20090291081A1 (AbbVie / Abbott, published 2009).
